Assay results reported in patent US20060199247A1.

Target: beef heart phosphodiesterase (Boeringer Mannheim) (beef)

phosphodiesterase activity: 6.5 fold
Substance: calmodulin
